What was measured:
[1] = molecular target: RAS proteins (endogenous, in cells); test: cell-based or functional assay
[2] = molecular target: diphtheria toxin receptor (heparin-binding epidermal growth factor-like growth factor, HB-EGF) on Vero cells (UniProt Q09118); test: cell-based or functional assay

Work on RRSP-APD-Δdta-dtB (enzyme) yielded an EC50 of loss of RAS proteins in HeLa cells (immunoblot) [1] of 1 pM and a potency of RAS loss in HeLa cells against RRSP-dta-dtB [1] of 300 fold.

In the case of RRSP-dta-dtB (enzyme), the EC50 of loss of total RAS proteins in HeLa cells after 24 h (immunoblot with anti-RAS antibody) [1] is reported as 250 pM.

RRSP-Δdta-dtB (enzyme) gave an EC50 of loss of RAS proteins in HeLa cells (immunoblot) [1] of 1 pM and a potency of RAS loss in HeLa cells against RRSP-dta-dtB [1] of 300 fold.

For dtA-eGFP-dta-dtB, the EC50 of inhibition of protein synthesis (3H-leucine incorporation) in Vero cells, in the presence of 1 nM nontoxic DT [2] was 215 pM and the EC50 of inhibition of protein synthesis (3H-leucine incorporation) in Vero cells, without competitor [2] was 3.8 pM.

From patent US20200255483A1
